Source: paper doi:10.1101/2025.07.01.662521, “Ligand-induced Conformational Plasticity of the CTLH E3 Ligase Receptor GID4” (bioRxiv, 2025)

Biological target: T1, Human Glucose-induced degradation protein 4 homolog (GID4), residues 116-300, N-terminally Avi-tagged, … (human, UniProt Q8IVV7 116-300, biotin (BirA, on the AVI tag))
T1 construct: Glucose-induced degradation protein 4 homolog (GID4), human, UniProt Q8IVV7, residues 116-300; Construct: N-terminal Strep-SUMO-3C-6xHis-AVI-tag; cleaved with HRV-3C protease, which by the printed order of the tags should leave 6xHis-AVI on the protein; also called hGID4; biotinylated GID4; source: E. coli BL21(DE3), purified (Streptactin XT, HRV-3C cleavage, BirA biotinylation, SEC); not shown: …
T1 sequence (looked up): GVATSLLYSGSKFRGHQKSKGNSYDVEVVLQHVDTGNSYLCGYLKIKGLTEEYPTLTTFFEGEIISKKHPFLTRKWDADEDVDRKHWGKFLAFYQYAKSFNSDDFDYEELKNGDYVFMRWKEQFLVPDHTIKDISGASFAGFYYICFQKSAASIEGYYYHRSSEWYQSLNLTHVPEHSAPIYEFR
Assay: SPR; biotinylated GID4 (116-300) captured on an SA chip (about 2500 RU), Biacore 8K; peptide flowed over; PBS pH 7.4, 0.05% P-20, 1 mM DTT, 1% DMSO
Details: both partners purified

Kd: 2.13 µM
B1: degron peptide PGLWKS (peptide)
peptide: PGLWKS
notes: Pro/N-degron peptide; also called endogenous degron peptide; PGLWKS degron peptide
